Data on 1 substance can be found in publication PMC5027278.

For this test, the target named is EphA2 (co-transfected with Anks1a constructs) (UniProt P29317). The test can be described thus: not stated; interaction in co-transfected cells, quantified against WT Anks1a (Supplementary Fig. 5f,g).
UniProt P29317, sequence (P29317 24-976): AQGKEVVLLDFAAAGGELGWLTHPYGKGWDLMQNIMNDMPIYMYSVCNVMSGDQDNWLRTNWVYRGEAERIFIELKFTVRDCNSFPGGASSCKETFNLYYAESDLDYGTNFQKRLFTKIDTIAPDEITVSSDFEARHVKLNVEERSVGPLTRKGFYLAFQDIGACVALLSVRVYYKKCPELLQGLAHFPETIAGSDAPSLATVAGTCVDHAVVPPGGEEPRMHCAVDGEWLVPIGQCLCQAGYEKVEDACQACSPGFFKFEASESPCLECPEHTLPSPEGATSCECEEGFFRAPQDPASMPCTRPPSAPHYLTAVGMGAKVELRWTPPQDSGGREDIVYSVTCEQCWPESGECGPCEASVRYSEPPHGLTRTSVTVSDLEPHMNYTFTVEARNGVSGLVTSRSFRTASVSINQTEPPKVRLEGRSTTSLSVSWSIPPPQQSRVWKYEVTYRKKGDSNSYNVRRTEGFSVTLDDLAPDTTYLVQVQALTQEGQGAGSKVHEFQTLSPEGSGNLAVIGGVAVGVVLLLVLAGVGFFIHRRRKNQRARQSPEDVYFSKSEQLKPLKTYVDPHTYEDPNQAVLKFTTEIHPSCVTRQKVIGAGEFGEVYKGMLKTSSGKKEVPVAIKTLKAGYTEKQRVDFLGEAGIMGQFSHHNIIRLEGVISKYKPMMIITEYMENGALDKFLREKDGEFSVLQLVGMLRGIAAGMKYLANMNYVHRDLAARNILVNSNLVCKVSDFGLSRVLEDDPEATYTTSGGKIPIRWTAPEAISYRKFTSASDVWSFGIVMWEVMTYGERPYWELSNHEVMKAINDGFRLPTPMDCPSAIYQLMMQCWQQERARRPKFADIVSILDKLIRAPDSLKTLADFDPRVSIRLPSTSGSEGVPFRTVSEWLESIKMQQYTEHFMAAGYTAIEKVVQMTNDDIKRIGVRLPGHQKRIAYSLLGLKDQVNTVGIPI

In turn, “Anks1a-S647A/S663A double mutant (Ser DM) (natural protein)” gave a binding relative to WT Anks1a of 50%.
